These results are taken from paper PMC11886824 (Nucleic Acids Research, 2025).

For one data set, the target named is T1, P12 F44A+K10A (M2) (Enterobacteria phage PRD1, UniProt P17637 1-160, K10A;F44A).
T1 sequence: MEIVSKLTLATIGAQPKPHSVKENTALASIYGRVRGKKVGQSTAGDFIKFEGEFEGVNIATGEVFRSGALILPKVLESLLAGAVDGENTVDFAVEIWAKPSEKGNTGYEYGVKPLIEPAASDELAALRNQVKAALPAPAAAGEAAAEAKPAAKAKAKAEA
As to the kind of experiment: EMSA. In general terms: Mobility shift assays separate free from complexed probe on a gel.

In data set [1] the target is T2, P12 WT (Enterobacteria phage PRD1, UniProt P17637 1-160).
T2 sequence: T1 sequence with A10K, A44F
As to the kind of experiment: EMSA.

For a further data set, the target named is T3, P12(1-122) (T3) (Enterobacteria phage PRD1, UniProt P17637 1-122, del123-160).
T3 sequence: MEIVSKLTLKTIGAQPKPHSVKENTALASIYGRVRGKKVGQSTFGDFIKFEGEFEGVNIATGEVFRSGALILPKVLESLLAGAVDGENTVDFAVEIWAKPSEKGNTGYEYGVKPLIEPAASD
In words: EMSA.

Data set [2] addresses T2, P12 WT. In words: EMSA. This is another data set of the same source.
The data set “cryo-EM structure” deals with the molecule itself. As to the kind of experiment: cryo-EM structure.
Data set [3] addresses T2, P12 WT. As to the kind of experiment: EMSA. The source holds these as a separate data set.

Residue numbers refer to the chain shown, from its start. Where two headings read alike, the source gives them in different places.

One may read the Kd as the concentration at which binding is half-saturated. Read a low Kd as tighter binding.

B1: ssDNA (non-repetitive)80 (ssDNA)
DNA: AGAGACAACTGGCCGTCGTTCTATTGTACTCACTGTGATCAGAGACAACTGGCCGTCGTTCTATTGTACTCACTGTGATC
Take B1: the binding result with P12 F44A+K10A (M2) and in the data set with P12(1-122) (T3) was “no binding” in each case. In the data set with P12 WT [1], binding was put at a Kd of 350 nM.

For the molecule GAAAAUAAAAAUAAACUGGACAAUUAAGGAUCCUGUACAAGUCGACGCGG (ssRNA) [ssRNA (non-repetitive)50], the binding result in the data set with P12 WT [2] was “no binding”.

B2: P12, single-stranded DNA-binding protein from bacteriophage PRD1 (natural protein, UniProt P17637 1-160, looked up)
chain: T1 sequence with A10K, A44F
Consider B2, for which, in “cryo-EM structure”, the binding result is reported as “binds”.

As for AGAGACAACTGGCCGTCGTTCTATTGTACTCACTGTGATC (ssDNA) [ssDNA (non-repetitive)40], the binding result with P12 WT [3] is “binds”.

For GATCACAGTGAGTACAATAGAACGACGGCCAGTTGTCTCAATCTAACGGC (ssDNA) [ssDNA (non-repetitive)50], in the data set with P12 WT [2], the binding result is listed as “binds”.
